{"source": "patent US20020106676A1", "about": "(MYRIAD GENETICS, published 2002)", "binders": {"B1": {"name": "PSD95, amino acids 149-255 (bait of Example 34) (other, UniProt P04386 1-147, looked up)", "chain": "MKLLSSIEQACDICRLKKLKCSKEKPKCAKCLKNNWECRYSPKTKRSPLTRAHLTEVESRLERLEQLFLLIFPREDLDMILKMDSLQDIKALLTGLFVQDNVNKDAVTDRLASVETDMPLTLRQHRISATSSSEESSNKGQRQLTVSMRRKPPAEKVMEIKLIKGPKGLGFSIAGGVGNQHIPGDNSIYVTKIIEGGAAHKDGRLQIGDKILAVNSVGLEDVMHEDAVAALKNTYDVVYLKVAKPSNAYLSDSY", "notes": "also called DLG4; SAP-90"}}, "target": "T1, PN7740, amino acids 27-321 (prey of Example 34) (Saccharomyces cerevisiae; human, UniProt P04386 768-881)", "T1 construct": "also called novel protein PN7740", "T1 sequence": "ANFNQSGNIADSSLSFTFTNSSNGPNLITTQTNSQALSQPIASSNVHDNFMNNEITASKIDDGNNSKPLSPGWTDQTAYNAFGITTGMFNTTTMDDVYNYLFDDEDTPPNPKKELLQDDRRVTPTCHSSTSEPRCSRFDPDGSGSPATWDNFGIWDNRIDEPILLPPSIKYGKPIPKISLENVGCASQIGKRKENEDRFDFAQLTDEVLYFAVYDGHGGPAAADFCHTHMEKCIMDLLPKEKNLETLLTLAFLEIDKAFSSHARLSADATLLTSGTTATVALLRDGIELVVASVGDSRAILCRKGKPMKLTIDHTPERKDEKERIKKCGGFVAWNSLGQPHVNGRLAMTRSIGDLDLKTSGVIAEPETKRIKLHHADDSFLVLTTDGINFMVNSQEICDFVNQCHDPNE", "test": "yeast two-hybrid search", "procedure": "The resulting diploid yeast cells expressing proteins interacting with the bait protein were selected for the ability to synthesize tryptophan, leucine, histidine, and adenine. DNA was prepared from each clone, transformed by electroporation into E. coli strain KC8 (Clontech KC8 electrocompetent cells, Catalog No. C2023- 1), and the cells were selected on ampicillin-containing plates in the absence of either tryptophane (selection for the bait plasmid) or leucine (selection for the library plasmid). DNA for both plasmids was prepared and sequenced by the dideoxynucleotide chain termination method. […] Clones that gave a positive signal in the p-galactosidase assay were considered false-positives and discarded. Plasmids for the remaining clones were transformed into yeast cells together with the original bait plasmid. Clones that gave a positive signal in the p-galactosidase assay were considered true positives.", "data": [{"binder": "B1", "values": [{"measurement": "binding result", "result": "binds"}]}]}
